Assays:
[1] = Microsphere formation, size and appearance by light microscopy; type: physicochemical
Protocol: 4) DAS181+5 mM sodium citrate, pH 5.0+10% isopropanol; • Plastic microcentrifuge tubes containing the cocktails with ingredients as described in 1)-4) above were gradually cooled from: • (a) ambient temperature (about 25° C.) to 4° C. by placing the cocktails in a refrigerator, followed by: • (b) cooling to −20° C. by placing the resulting cocktail from (a) in a freezer, followed by: • (c) freezing to −80° C. by placing the resulting cocktail from b) in a freezer.
Freezing to −80° C. is carried out to remove ingredients from the cocktail other than the microspheres (e.g., solvent, etc.) by freeze-drying. Cocktail 4) was prepared in triplicate, two aliquots in plastic tubes and one in a glass tube. One aliquot (in a plastic tube) was cooled as described above, while the two other aliquots (one in a plastic tube and one in a glass tube) were subjected to snap cooling/freezing by dipping the tubes into liquid nitrogen.
Upon freezing, all tubes were placed into the lyophilizer and the volatiles (water and isopropanol) were removed by sublimation, leaving the dry pellets.
The dry pellets recovered from the cocktails treated as described above, were tested for the presence of microspheres.
(§1) DAS181 was purified and used to prepare microspheres as described above in Example 1 (see cocktail 4)), using a combination of DAS181 protein (10 mg/ml), citrate counterion (sodium citrate, 5 mM) and isopropanol organic solvent (10%, 20% or 30%). The resulting cocktail solutions were cooled from ambient temperature (about 25° C.) to 4° C., followed by cooling to −20° C., followed by freezing to −80° C., as described in Example 1. Upon freezing to −80° C., the tubes are placed in a lyophilizer and the volatiles (water and isopropanol) were removed by sublimation, leaving the dry powder containing microspheres.
as §1, with “protein (5 mg/ml or 10” for “protein (10”, “isopropanol (5%” for “isopropanol organic solvent (10%, 20%”, “or 20%).” for “or 30%).”, “tubes were” for “tubes are”
DAS181 was purified and used to prepare microspheres as described above in Example 1 (see cocktail 4)), using a combination of DAS181 protein (10 mg/ml), citrate counterion (sodium citrate; 2 mM, 3 mM or 6 mM) and isopropanol (20%). The cocktail solutions were mixed in glass vials and cooled from +20° C. to −40° C. at a freeze ramp of 1° C. per minute in a Millrock Lab Series lyophilizer. Volatiles (water and isopropanol) were removed by sublimation at 100 mTorr with primary drying at −30° C. for 12 hours and secondary drying at 30° C. for 3 hours, leaving the dry powder containing microspheres.
To a cocktail solution containing 5 mg/ml DAS181, 5 mM sodium citrate, and 20% isopropanol, was added a surfactant (3.5% w/w lecithin, 0.7% w/w Span-85® (sorbitan trioleate), or 3.5% w/w oleic acid).

[2] = as above; type: physicochemical; remark: listed apart in the source
[3] = Sialidase activity with fluorogenic substrate 4-MU-NANA; type: biochemical
Protocol: The sialidase activity of DAS181 was measured using the fluorogenic substrate 4-methylumbelliferyl-N-acetyl-α-D-neuraminic acid (4-MU-NANA; Sigma). One unit of sialidase is defined as the amount of enzyme that releases 10 nmol of MU from 4-MU-NANA in 10 minutes at 37° C. (50 mM CH3COOH—NaOH buffer, pH 5.5) in a reaction that contains 20 nmol of 4-MU-NANA in a 0.2 ml volume (Potier et al., Anal. Biochem., 94:287-296, 1979). The specific activity of DAS181 was determined to be 1,300 U/mg protein (0.77 μg DAS181 protein per unit of activity).

B1: DAS181: fusion protein: heparin (GAG) binding domain of human amphiregulin fused to a catalytic domain of Actinomyces Viscosus sialidase (SEQ ID NO:17) (protein)
chain: MGDHPQATPAPAPDASTELPASMSQAQHLAANTATDNYRIPAITTAPNGDLLISYDERPKDNGNGGSDAPNPNHIVQRRSTDGGKTWSAPTYIHQGTETGKKVGYSDPSYVVDHQTGTIFNFHVKSYDQGWGGSRGGTDPENRGIIQAEVSTSTDNGWTWTHRTITADITKDKPWTARFAASGQGIQIQHGPHAGRLVQQYTIRTAGGAVQAVSVYSDDHGKTWQAGTPIGTGMDENKVVELSDGSLMLNSRASDGSGFRKVAHSTDGGQTWSEPVSDKNLPDSVDNAQIIRAFPNAAPDDPRAKVLLLSHSPNPRPWSRDRGTISMSCDDGASWTTSKVFHEPFVGYTTIAVQSDGSIGLLSEDAHNGADYGGIWYRNFTMNWLGEQCGQKPAKRKKKGGKNGKNRRNRKKKNP
modifications: DAS181
size of microspheres ([1]; 5 mg/ml DAS181, 5 mM sodium citrate, 20% isopropanol): about 3 microns
dispersivity of microspheres formed with surfactant vs without ([1]; 5 mg/ml DAS181, 5 mM sodium citrate, 20% isopropanol + 3.5% w/w lecithin, 0.7% w/w Span-85 or 3.5% w/w oleic acid): improved dispersivity
size of microspheres ([1]; 10 mg/ml DAS181, 2 mM citrate, 20% isopropanol, +20°C to −40°C at 1°C per minute): 1 micron
size of microspheres ([1]; 10 mg/ml DAS181, 3 mM citrate, 20% isopropanol, +20°C to −40°C at 1°C per minute): 3 microns
size of microspheres ([1]; 10 mg/ml DAS181, 5 mM sodium citrate, 30% isopropanol, gradual cooling): 5-6 microns
size of microspheres ([1]; 10 mg/ml DAS181, 6 mM citrate, 20% isopropanol, +20°C to −40°C at 1°C per minute): 5 microns
size of microspheres ([2]; 5 mg/ml or 10 mg/ml DAS181, 5 mM sodium citrate, 5% isopropanol): about 1.5 micron
appearance of dry pellet ([2]; cocktail 2): 10 mg/ml DAS181, 5 mM glycine pH 5.0, 10% isopropanol, gradual cooling): a mixture of glass-like crystals and agglomerates with only a few microspheres
appearance of dry pellet ([2]; cocktail 4) (5 mM sodium citrate, 10% isopropanol) snap-frozen in liquid nitrogen in a glass tube): glass-like crystals and no microspheres
appearance of dry pellet ([2]; cocktail 4) (5 mM sodium citrate, 10% isopropanol) snap-frozen in liquid nitrogen in a plastic tube): agglomerated microspheres
appearance of dry pellet ([2]; cocktails 1) and 3): 10 mg/ml DAS181, 5 mM glycine or 5 mM sodium citrate pH 5.0, no organic solvent): no microspheres were observed
appearance of microspheres (microscopy and cascade impaction) ([2]; continuous mode: 10 mg/ml DAS181, 20% isopropanol, 2 mM sodium sulfate, heat exchanger, cooled from about 25°C to about −12°C): uniform microspheres with minimal aggregation and good dispersivity
appearance after lyophilization ([2]; same cocktail not chilled, poured directly into liquid nitrogen): no microspheres were observed
specific activity of DAS181 ([3]; 4-MU-NANA, 37°C, pH 5.5, one unit releases 10 nmol MU in 10 minutes): 1,300 U/mg protein
DAS181 protein per unit of activity ([3]; same assay): 0.77 µg

From US20190060239A1, “Technology for the Preparation of Microparticles” (Ansun Biopharma, Inc., priority 2007, published 2019)
